The text below walks through data of patent US20140213531A1 (POLYPHOR, published 2014).

What is called % inhibition is the drop in the measured response relative to a control, in per cent. Low readings indicate a response near the control, high ones a response far below the control.

What all share (test): cell-based or functional assay
The target in experiment [1] is T1, CathepsinG, from human neutrophils (human, UniProt P08311 21-244).
T1 sequence (looked up): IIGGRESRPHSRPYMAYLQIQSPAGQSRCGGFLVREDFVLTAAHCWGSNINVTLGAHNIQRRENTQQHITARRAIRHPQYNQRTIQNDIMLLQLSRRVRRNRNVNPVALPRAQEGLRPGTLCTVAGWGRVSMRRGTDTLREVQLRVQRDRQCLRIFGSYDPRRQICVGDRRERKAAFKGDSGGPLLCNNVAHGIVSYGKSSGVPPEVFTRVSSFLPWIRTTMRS

The target in experiment [2] is T2, Elastase from human neutrophils (human, UniProt P08246 30-247, limits assumed).
T2 sequence (looked up): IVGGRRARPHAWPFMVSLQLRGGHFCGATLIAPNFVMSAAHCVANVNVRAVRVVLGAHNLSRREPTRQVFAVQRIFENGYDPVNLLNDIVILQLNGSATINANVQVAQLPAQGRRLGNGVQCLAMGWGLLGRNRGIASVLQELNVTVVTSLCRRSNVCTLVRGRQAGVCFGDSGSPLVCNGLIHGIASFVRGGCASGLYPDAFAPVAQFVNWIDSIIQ

Experiment [3] deals with Trypsin, Iodination grade, from human pancreas (human, UniProt P07477 24-247).
For experiment [4], the target named is Chymotrypsin, from human pancreas (human, UniProt P17538 19-263).
Chain of Chymotrypsin, from human pancreas (P17538 19-263): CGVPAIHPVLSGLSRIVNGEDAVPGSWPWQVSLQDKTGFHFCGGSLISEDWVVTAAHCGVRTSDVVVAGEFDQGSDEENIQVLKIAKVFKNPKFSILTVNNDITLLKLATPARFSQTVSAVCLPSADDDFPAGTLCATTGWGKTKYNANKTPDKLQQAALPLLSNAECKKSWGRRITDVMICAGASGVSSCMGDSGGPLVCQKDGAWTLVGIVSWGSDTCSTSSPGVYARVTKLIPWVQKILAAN
For experiment [5], the target named is T3, Chymase, from human skin (human, UniProt P23946 22-247).
T3 sequence (looked up): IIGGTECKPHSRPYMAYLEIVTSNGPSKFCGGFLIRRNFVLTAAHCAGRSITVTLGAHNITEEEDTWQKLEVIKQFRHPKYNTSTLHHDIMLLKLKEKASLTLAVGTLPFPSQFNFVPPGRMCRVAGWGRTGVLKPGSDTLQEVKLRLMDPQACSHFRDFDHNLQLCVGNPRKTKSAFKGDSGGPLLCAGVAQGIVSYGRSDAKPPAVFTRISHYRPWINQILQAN

Experiment [6] deals with Thrombin, from Human Plasma, high activity (human, UniProt P00734 328-622).
Experiment [7] concerns the target Coagulation Factor Xa, from human plasma (human, UniProt P00742 41-488, limits assumed).
Experiment [8] addresses Urokinase from human urine (human, UniProt P00749 21-431, limits assumed).
The target in experiment [9] is Tryptase, from human lung (human, UniProt Q15661 31-275, limits assumed).
Chain of Tryptase, from human lung (Q15661 31-275 limits assumed): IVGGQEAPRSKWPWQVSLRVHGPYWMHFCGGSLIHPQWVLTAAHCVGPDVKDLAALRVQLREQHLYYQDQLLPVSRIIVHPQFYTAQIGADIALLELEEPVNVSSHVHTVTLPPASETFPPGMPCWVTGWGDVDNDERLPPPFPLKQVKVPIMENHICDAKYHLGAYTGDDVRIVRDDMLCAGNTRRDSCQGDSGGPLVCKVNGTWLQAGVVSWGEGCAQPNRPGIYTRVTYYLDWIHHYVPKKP

Chain of Coagulation Factor Xa, from human plasma (P00742 41-488 limits assumed): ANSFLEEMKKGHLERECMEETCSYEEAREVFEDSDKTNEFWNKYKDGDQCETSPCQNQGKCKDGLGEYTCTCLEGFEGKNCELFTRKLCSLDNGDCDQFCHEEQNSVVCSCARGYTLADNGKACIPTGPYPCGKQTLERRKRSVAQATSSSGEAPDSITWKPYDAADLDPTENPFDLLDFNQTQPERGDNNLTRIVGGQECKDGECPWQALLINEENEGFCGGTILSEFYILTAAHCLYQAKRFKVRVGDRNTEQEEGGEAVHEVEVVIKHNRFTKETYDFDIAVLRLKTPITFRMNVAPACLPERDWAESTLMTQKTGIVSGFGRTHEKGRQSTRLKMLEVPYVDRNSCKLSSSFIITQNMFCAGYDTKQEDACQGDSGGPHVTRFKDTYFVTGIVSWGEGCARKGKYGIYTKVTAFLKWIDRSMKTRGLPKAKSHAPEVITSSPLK

B1: Example 40 (peptide)
peptide: XCTKSDPPICY
HELM: PEPTIDE1{[O=C([C@@H](N[*:1])C1CCCCC1)[*:2]].C.T.K.S.D.P.P.I.C.Y.[dP].P}$PEPTIDE1,PEPTIDE1,2:R3-10:R3|PEPTIDE1,PEPTIDE1,1:R1-13:R2$$$V2.0
SMILES: CC[C@H](C)[C@@H]1NC(=O)[C@@H]2CCCN2C(=O)[C@@H]2CCCN2C(=O)[C@H](CC(=O)O)NC(=O)[C@H](CO)NC(=O)[C@H](CCCCN)NC(=O)[C@H]([C@@H](C)O)NC(=O)[C@@H]2CSSC[C@H](NC1=O)C(=O)N[C@@H](Cc1ccc(O)cc1)C(=O)N1CCC[C@@H]1C(=O)N1CCC[C@H]1C(=O)N[C@@H](C1CCCCC1)C(=O)N2
With B1, the figures for the IC50 in experiment [1] and in experiment [2] were 25 nmol and above 44900 nmol, respectively. Further, the “% inhibition at 100 µM” value in experiment [3] is 94%; in experiment [4], 19%; in experiment [5], 8%; in experiment [6] it was 1%; in [7], 3%; in [8], 10%. In experiment [9], the “% inhibition at 100 µM” value was 33%.

B2: Example 5 (peptide)
peptide: FCTKSDPPICY
HELM: PEPTIDE1{F.C.T.K.S.D.P.P.I.C.Y.[dP].P}$PEPTIDE1,PEPTIDE1,2:R3-10:R3|PEPTIDE1,PEPTIDE1,1:R1-13:R2$$$V2.0
SMILES: CC[C@H](C)[C@@H]1NC(=O)[C@@H]2CCCN2C(=O)[C@@H]2CCCN2C(=O)[C@H](CC(=O)O)NC(=O)[C@H](CO)NC(=O)[C@H](CCCCN)NC(=O)[C@H]([C@@H](C)O)NC(=O)[C@@H]2CSSC[C@H](NC1=O)C(=O)N[C@@H](Cc1ccc(O)cc1)C(=O)N1CCC[C@@H]1C(=O)N1CCC[C@H]1C(=O)N[C@@H](Cc1ccccc1)C(=O)N2
With B2, the IC50 is 56 nmol in experiment [1] and above 100000 nmol in [2]. Further, the “% inhibition at 100 µM” value in experiment [3] amounted to 92%; in experiment [4], 3%; in [5] it was 0%; in [6], 0.5%; in experiment [7], 0.2%; in experiment [8] it was 5.7%. In addition, the “% inhibition at 100 µM” value in experiment [9] was determined as 74%.

B3: Example 46 (peptide)
peptide: FCTKSDPPICS
HELM: PEPTIDE1{F.C.T.K.S.D.P.P.I.C.S.[dD].P}$PEPTIDE1,PEPTIDE1,2:R3-10:R3|PEPTIDE1,PEPTIDE1,1:R1-13:R2$$$V2.0
SMILES: CC[C@H](C)[C@@H]1NC(=O)[C@@H]2CCCN2C(=O)[C@@H]2CCCN2C(=O)[C@H](CC(=O)O)NC(=O)[C@H](CO)NC(=O)[C@H](CCCCN)NC(=O)[C@H]([C@@H](C)O)NC(=O)[C@@H]2CSSC[C@H](NC1=O)C(=O)N[C@@H](CO)C(=O)N[C@H](CC(=O)O)C(=O)N1CCC[C@H]1C(=O)N[C@@H](Cc1ccccc1)C(=O)N2
For B3, the IC50 is 87.5 nmol in [1] and above 100000 nmol in experiment [2]. Also, the “% inhibition at 100 µM” value in experiment [3] was 95%; in experiment [4], 0%; in experiment [5] it was 10.2%; in experiment [6], 6.9%; in [7], 12.2%; in [8], 5.8%. In addition, in experiment [9], the “% inhibition at 100 µM” value stood at 44.1%.

B4: Example 63 (peptide)
peptide: XCTKSDPPXCY
HELM: PEPTIDE1{[O=C([C@@H](N[*:1])C1CCCCC1)[*:2]].C.T.K.S.D.P.P.[Nle].C.Y.[dP].P}$PEPTIDE1,PEPTIDE1,2:R3-10:R3|PEPTIDE1,PEPTIDE1,1:R1-13:R2$$$V2.0
SMILES: CCCC[C@@H]1NC(=O)[C@@H]2CCCN2C(=O)[C@@H]2CCCN2C(=O)[C@H](CC(=O)O)NC(=O)[C@H](CO)NC(=O)[C@H](CCCCN)NC(=O)[C@H]([C@@H](C)O)NC(=O)[C@@H]2CSSC[C@H](NC1=O)C(=O)N[C@@H](Cc1ccc(O)cc1)C(=O)N1CCC[C@@H]1C(=O)N1CCC[C@H]1C(=O)N[C@@H](C1CCCCC1)C(=O)N2
With B4, the IC50 is 41 nmol in experiment [1] and above 100000 nmol in experiment [2]. Moreover, the “% inhibition at 100 µM” value in [3] was 96%; in experiment [4], 11%; in experiment [5], 7%; in experiment [6], 1%; in experiment [7] it was 0%; in experiment [8] it was 0%. The “% inhibition at 100 µM” value in experiment [9] was 50%.

B5: Example 44 (peptide)
peptide: XCTKSDPPICY
HELM: PEPTIDE1{[Nle].C.T.K.S.D.P.P.I.C.Y.[dP].P}$PEPTIDE1,PEPTIDE1,2:R3-10:R3|PEPTIDE1,PEPTIDE1,1:R1-13:R2$$$V2.0
SMILES: CCCC[C@@H]1NC(=O)[C@@H]2CCCN2C(=O)[C@H]2CCCN2C(=O)[C@H](Cc2ccc(O)cc2)NC(=O)[C@@H]2CSSC[C@H](NC1=O)C(=O)N[C@@H]([C@@H](C)O)C(=O)N[C@@H](CCCCN)C(=O)N[C@@H](CO)C(=O)N[C@@H](CC(=O)O)C(=O)N1CCC[C@H]1C(=O)N1CCC[C@H]1C(=O)N[C@@H]([C@@H](C)CC)C(=O)N2
For B5, the IC50 in experiment [1] was 31 nmol; in [2] it was above 10000 nmol. For the same molecule, the “% inhibition at 100 µM” value in [3] came to 100%; in experiment [4] it was 24%; in experiment [5], 3%; in [6], 9%; in experiment [7] it was 9%; in [8] it was 14%. For the same molecule, the “% inhibition at 100 µM” value in experiment [9] turned out to be 50%.

B6: Example 47 (peptide)
peptide: FCTKSDPPICS
HELM: PEPTIDE1{F.C.T.K.S.D.P.P.I.C.S.[dP].D}$PEPTIDE1,PEPTIDE1,2:R3-10:R3|PEPTIDE1,PEPTIDE1,1:R1-13:R2$$$V2.0
SMILES: CC[C@H](C)[C@@H]1NC(=O)[C@@H]2CCCN2C(=O)[C@@H]2CCCN2C(=O)[C@H](CC(=O)O)NC(=O)[C@H](CO)NC(=O)[C@H](CCCCN)NC(=O)[C@H]([C@@H](C)O)NC(=O)[C@@H]2CSSC[C@H](NC1=O)C(=O)N[C@@H](CO)C(=O)N1CCC[C@@H]1C(=O)N[C@@H](CC(=O)O)C(=O)N[C@@H](Cc1ccccc1)C(=O)N2
Take B6: the IC50 is 64 nmol in experiment [1] and above 10000 nmol in experiment [2]. Also, the “% inhibition at 100 µM” value was 87% in experiment [3]; 1% in experiment [4]; 8.2% in experiment [5]; 0% in [6]; 9.3% in [7]; 6.3% in [8]. Moreover, in [9], the “% inhibition at 100 µM” value stood at 0%.

B7: Example 4 (peptide)
peptide: FCTKSDPPICS
HELM: PEPTIDE1{F.C.T.K.S.D.P.P.I.C.S.[dP].P}$PEPTIDE1,PEPTIDE1,2:R3-10:R3|PEPTIDE1,PEPTIDE1,1:R1-13:R2$$$V2.0
SMILES: CC[C@H](C)[C@@H]1NC(=O)[C@@H]2CCCN2C(=O)[C@@H]2CCCN2C(=O)[C@H](CC(=O)O)NC(=O)[C@H](CO)NC(=O)[C@H](CCCCN)NC(=O)[C@H]([C@@H](C)O)NC(=O)[C@@H]2CSSC[C@H](NC1=O)C(=O)N[C@@H](CO)C(=O)N1CCC[C@@H]1C(=O)N1CCC[C@H]1C(=O)N[C@@H](Cc1ccccc1)C(=O)N2
For B7, the IC50 in experiment [1] was 91 nmol; in experiment [2], above 100000 nmol. Besides, the “% inhibition at 100 µM” value in experiment [3] turned out to be 96%; in [4], 1.8%; in [5], 0%; in [6], 0%; in [7], 2.4%; in experiment [8], 5.4%. In addition, in [9], the “% inhibition at 100 µM” value was determined as 0%.

B8: Example 39 (peptide)
peptide: XCTKSDPPICD
HELM: PEPTIDE1{[O=C([C@@H](N[*:1])C1CCCCC1)[*:2]].C.T.K.S.D.P.P.I.C.D.[dP].P}$PEPTIDE1,PEPTIDE1,2:R3-10:R3|PEPTIDE1,PEPTIDE1,1:R1-13:R2$$$V2.0
SMILES: CC[C@H](C)[C@@H]1NC(=O)[C@@H]2CCCN2C(=O)[C@@H]2CCCN2C(=O)[C@H](CC(=O)O)NC(=O)[C@H](CO)NC(=O)[C@H](CCCCN)NC(=O)[C@H]([C@@H](C)O)NC(=O)[C@@H]2CSSC[C@H](NC1=O)C(=O)N[C@@H](CC(=O)O)C(=O)N1CCC[C@@H]1C(=O)N1CCC[C@H]1C(=O)N[C@@H](C1CCCCC1)C(=O)N2
Take B8: the values for the IC50 in experiment [1] and in experiment [2] were 38 nmol and above 100000 nmol, respectively. Besides, the “% inhibition at 100 µM” value in [3] stood at 94%; in experiment [4], 7%; in [5], 0%; in [6], 2%; in [7] it was 0%; in [8] it was 2%. In addition, the “% inhibition at 100 µM” value in [9] turned out to be 34%.
